In general, Kd refers to a measure of binding affinity in units of concentration. A low value points to a tighter complex.

This is an account of results in publication PMC10786891, “Massively parallel profiling of RNA-targeting CRISPR-Cas13d”.

Substitutions are numbered along the chain they refer to. In names and notes the source's numbering stands.

T1: EsCas13d, nuclease-dead (Eubacterium siraeum, UniProt B0MS50, R295A;H300A;R849A;H854A)
T1 sequence: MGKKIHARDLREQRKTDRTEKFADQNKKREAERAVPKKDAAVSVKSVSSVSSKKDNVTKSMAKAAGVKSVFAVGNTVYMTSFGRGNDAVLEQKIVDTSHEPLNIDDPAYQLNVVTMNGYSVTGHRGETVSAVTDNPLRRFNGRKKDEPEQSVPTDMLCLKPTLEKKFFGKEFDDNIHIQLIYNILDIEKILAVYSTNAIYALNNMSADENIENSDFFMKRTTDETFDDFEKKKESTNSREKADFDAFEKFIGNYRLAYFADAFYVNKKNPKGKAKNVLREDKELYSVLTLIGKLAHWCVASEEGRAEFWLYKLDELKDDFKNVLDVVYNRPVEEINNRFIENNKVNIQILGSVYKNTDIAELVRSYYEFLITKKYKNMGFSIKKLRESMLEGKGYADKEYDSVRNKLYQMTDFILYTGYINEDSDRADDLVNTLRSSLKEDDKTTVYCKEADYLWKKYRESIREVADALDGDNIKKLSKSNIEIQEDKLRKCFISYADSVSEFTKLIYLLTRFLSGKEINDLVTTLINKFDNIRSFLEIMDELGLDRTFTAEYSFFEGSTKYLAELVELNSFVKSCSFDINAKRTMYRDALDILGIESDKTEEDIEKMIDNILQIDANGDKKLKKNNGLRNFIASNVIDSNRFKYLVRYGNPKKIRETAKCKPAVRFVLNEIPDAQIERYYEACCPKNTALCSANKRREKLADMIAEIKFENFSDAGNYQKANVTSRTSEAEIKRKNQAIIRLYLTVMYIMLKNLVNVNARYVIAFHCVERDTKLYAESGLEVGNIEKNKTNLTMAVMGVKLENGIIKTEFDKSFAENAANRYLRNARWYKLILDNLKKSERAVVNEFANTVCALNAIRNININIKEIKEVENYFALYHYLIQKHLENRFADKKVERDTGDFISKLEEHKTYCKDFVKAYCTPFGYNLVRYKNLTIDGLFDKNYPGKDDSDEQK

B1: target 1 G17A,U19C (mixed)
RNA 1: CACCCGUGCAAAAAUGCAGGGGUCUAAAACUGAGCGGAUAACCUCUCUAUGG
RNA 2: GGGAAUGGAUCCACAUCUACGAAUUCGUACCACAAAGAGGUUAUCCGCUCACCGAGAUCGGAAGAGCACACGU
B2: target 1 insC 3' of 20,insA 3' of 5 (mixed)
RNA 1: B1 RNA 1
RNA 2: GGGAAUGGAUCCACAUCUACGAAUUCGUACCACUAGAGAGGUUAUCCGACUCACCGAGAUCGGAAGAGCACACGU
B3: target 1 insC 3' of 5,insC 3' of 5 (mixed)
RNA 1: B1 RNA 1
RNA 2: GGGAAUGGAUCCACAUCUACGAAUUCGUACCAUAGAGAGGUUAUCCGCCCUCACCGAGAUCGGAAGAGCACACGU
B4: target 1 C7A (mixed)
RNA 1: B1 RNA 1
RNA 2: B1 RNA 2 with C33U, A35G, C45A
B5: target 1 A1U,C7A (mixed)
RNA 1: B1 RNA 1
RNA 2: B1 RNA 2 with C33U, A35G, C45A, A51U
B6: target 1 insA 3' of 15,insG 3' of 10 (mixed)
RNA 1: B1 RNA 1
RNA 2: B3 RNA 2 with G39A, U41G, A43U, U44G, C45A, C46U, G47C, C49G
B7: target 1 insU 3' of 14,insG 3' of 1 (mixed)
RNA 1: B1 RNA 1
RNA 2: GGGAAUGGAUCCACAUCUACGAAUUCGUACCAUAGAGAUGGUUAUCCGCUCAGCCGAGAUCGGAAGAGCACACGU
B8: target 1 G13U,C21U (mixed)
RNA 1: B1 RNA 1
RNA 2: B1 RNA 2 with C31U, C33U, A35G, G39U
B9: target 1 A1G,A20U (mixed)
RNA 1: B1 RNA 1
RNA 2: B1 RNA 2 with A32U, C33U, A35G, A51G
B10: target 1 insU 3' of 12,insG 3' of 9 (mixed)
RNA 1: B1 RNA 1
RNA 2: B3 RNA 2 with A43U, U44A, C45G, C46U, G47C, C49G
B11: target 1 insU 3' of 21,insC 3' of 15 (mixed)
RNA 1: B1 RNA 1
RNA 2: GGGAAUGGAUCCACAUCUACGAAUUCGUACCUAUAGAGCAGGUUAUCCGCUCACCGAGAUCGGAAGAGCACACGU
B12: target 1 G5A,A14C (mixed)
RNA 1: B1 RNA 1
RNA 2: B1 RNA 2 with C33U, A35G, A38C, G47A
B13: target 1 insU 3' of 22,insU 3' of 21 (mixed)
RNA 1: B1 RNA 1
RNA 2: B11 RNA 2 with C31U, U32C, A33U, U34A, A35U, G36A, A37G, G38A, C39G
B14: target 1 U10G,C21U (mixed)
RNA 1: B1 RNA 1
RNA 2: B1 RNA 2 with C31U, C33U, A35G, U42G
B15: target 1 G5C,U8A (mixed)
RNA 1: B1 RNA 1
RNA 2: B1 RNA 2 with C33U, A35G, U44A, G47C
B16: target 1 G5A,A14G (mixed)
RNA 1: B1 RNA 1
RNA 2: B1 RNA 2 with C33U, A35G, A38G, G47A
B17: target 1 insU 3' of 14,insC 3' of 1 (mixed)
RNA 1: B1 RNA 1
RNA 2: B7 RNA 2 with G53C
B18: target 1 C6G,C7A (mixed)
RNA 1: B1 RNA 1
RNA 2: B1 RNA 2 with C33U, A35G, C45A, C46G
B19: target 1 C7A,G15U (mixed)
RNA 1: B1 RNA 1
RNA 2: B1 RNA 2 with C33U, A35G, G37U, C45A
B20: target 1 A1C,C7A (mixed)
RNA 1: B1 RNA 1
RNA 2: B1 RNA 2 with C33U, A35G, C45A, A51C
B21: target 1 insC 3' of 17 (mixed)
RNA 1: B1 RNA 1
RNA 2: GGGAAUGGAUCCACAUCUACGAAUUCGUACCAUAGCAGAGGUUAUCCGCUCACCGAGAUCGGAAGAGCACACGU
B22: target 1 insG 3' of 19,insG 3' of 4 (mixed)
RNA 1: B1 RNA 1
RNA 2: B2 RNA 2 with C33U, U34G, A49C, C50G
B23: target 1 insG 3' of 19,insU 3' of 6 (mixed)
RNA 1: B1 RNA 1
RNA 2: B2 RNA 2 with C33U, U34G, G48U, A49G
B24: target 1 insU 3' of 14,insA 3' of 2 (mixed)
RNA 1: B1 RNA 1
RNA 2: B7 RNA 2 with G53A
B25: target 1 insG 3' of 19,insA 3' of 8 (mixed)
RNA 1: B1 RNA 1
RNA 2: B2 RNA 2 with C33U, U34G, C46A, G48C, A49G
B26: target 1 del9,del19 (mixed)
RNA 1: B1 RNA 1
RNA 2: GGGAAUGGAUCCACAUCUACGAAUUCGUACCAAGAGAGGUUUCCGCUCACCGAGAUCGGAAGAGCACACGU
B27: target 1 insA 3' of 22,insG 3' of 14 (mixed)
RNA 1: B1 RNA 1
RNA 2: B11 RNA 2 with C31A, U32C, C39A, A40G
B28: target 1 insU 3' of 22,insC 3' of 8 (mixed)
RNA 1: B1 RNA 1
RNA 2: B2 RNA 2 with C31U, A32C, C33A, G48C, A49G
B29: target 1 U10G,A20U (mixed)
RNA 1: B1 RNA 1
RNA 2: B1 RNA 2 with A32U, C33U, A35G, U42G
B30: target 1 insA 3' of 8,insA 3' of 7 (mixed)
RNA 1: B1 RNA 1
RNA 2: B3 RNA 2 with C45A, G47A, C49G
B31: target 1 insG 3' of 11,insC 3' of 3 (mixed)
RNA 1: B1 RNA 1
RNA 2: B7 RNA 2 with U39G, G41U, U42G, A52C, G53A
B32: target 1 insG 3' of 19,insG 3' of 14 (mixed)
RNA 1: B1 RNA 1
RNA 2: B11 RNA 2 with U32A, A33U, U34G, C39A, A40G

This data set concerns the target T1, EsCas13d, nuclease-dead. Nature of the data set: crRNA (strand 1, pre-loaded); Mg2+; 40 mM Tris-HCl pH 7.5, 150 mM NaCl, 6 mM MgCl2, 1 mM DTT, 0.1% Tween-20, 0.2 mg/ml BSA; 25 C; 10 min per concentration, then washed. Particulars: tags: His6-TwinStrep-SUMO cleaved; N-terminal SNAP kept (SNAP-Surface 488); label: 3' end held by stalled T7 RNA polymerase.
Turning to B1, binding was put at a Kd of 46 ± 6 nM. The value for B2 was 7.3 ± 1.1 nM; that for B3 was 25.7 ± 3.2 nM. The figure for B4 is 7.8 ± 0.4 nM.

For the molecule B5, the Kd was found to be 9.4 ± 1 nM. The figure for B6 is 13.6 ± 1.8 nM; for B7 it is 45 ± 4 nM. B8: the Kd was 10.5 ± 0.9 nM. The value for B9 was 37.8 ± 2.3 nM. The figure for B10 is 13.3 ± 0.8 nM; for B11 it is 55 ± 7 nM. The value for B12 was 81 ± 34 nM; that for B13 was 85 ± 28 nM; that for B14 was 11.7 ± 0.8 nM.

Turning to B15, binding was characterised by a dissociation constant (Kd) of 38 ± 5 nM. Molecule B16 showed a Kd of 42 ± 4 nM. The value for B17 was 42 ± 7 nM.

Regarding B18, the affinity, expressed as Kd, was 8.9 ± 0.4 nM.

B19 displayed a Kd of 19.6 ± 2.1 nM. The figure for B20 is 9.8 ± 0.6 nM.

B21 displayed a Kd of 50 ± 11 nM. The value for B22 was 34.6 ± 1.9 nM.

B23 yielded a Kd of 82 ± 9 nM. As to B24, the Kd stood at 43 ± 6 nM.

Molecule B25 yielded a dissociation constant Kd of 57 ± 7 nM. The figure for B26 is 86 ± 33 nM. The figure for B27 is 21.7 ± 3.2 nM; for B28 it is roughly 100 nM.

In turn, B29 had a Kd of 60 ± 18 nM. In turn, B30 yielded a dissociation constant (Kd) of 11.3 ± 0.5 nM.

In turn, B31 displayed a dissociation constant (Kd) of 51 ± 8 nM. The value for B32 was 75 ± 16 nM.
